The record followed here is article PMC11033290.

The target of this experiment is Recombinant MDP1 (Mycobacterial DNA-binding protein 1) of M. tuberculosis produced in Escherichia coli (Mycobacterium tuberculosis) (UniProt P9WMK7). In words: cross-linking; glutaraldehyde 0.2%, room temperature, 30 min; 4 µM or 8 µM protein in 150-1500 mM NaCl; SDS-PAGE on a 4-15% gradient gel.

On to “Recombinant MDP1 (Mycobacterial DNA-binding protein 1) of M. tuberculosis produced in Escherichia coli (from UniProt P9WMK7 3-216) (natural protein)”, for which the stoichiometry N was 2.

For orientation: stoichiometry N means a count of units in the complex or per binding partner.
